According to the RNAGym collection of RNA variant scans (doi:10.7554/elife.80360):

B1: HDV Ribozyme (parent)
chain: GGCCGGCAUGGUCCCAGCCUCCUCGCUGGCGCCGGCUGGGCAACAUUCCGAGGGGACCGUCCCCUCGGUAAUGGCGAAUGGGACCCA

Variants of: B1
Assay: self-cleavage, relative activity (ratio to wild type); higher = more cleavage; co-transcriptional

Row | Variant | self-cleavage
1 | GGCCGGCAUGGUCCCAGCCUGCUCGCUGGCGCCGGCUCGGCAACAUUCCGAGGGGACCGUCCCCUCGGUAAUGGCGAAUGGGACCCA [C21G G38C] | 0
2 | GGCCGGCAUGGUCCCAGCCUUCUCGCUGGCGCCGGCUGGGCAACAUUCCGAGGGGACCGUCCCCUCGGUAAUGGCGAAUAGGACCCA [C21U G80A] | 0.185
3 | GGCCGGCAUGGUCCCAGCCUUCUCGCUGGCGCCGGCUGGGCGACAUUCCGAGGGGACCGUCCCCUCGGUAAUGGCGAAUGGGACCCA [C21U A42G] | 0.0652
4 | GGCCGGCAUGGUCCCAGCCUUCUCGCUGGCGCCGGCUGGGCCACAUUCCGAGGGGACCGUCCCCUCGGUAAUGGCGAAUGGGACCCA [C21U A42C] | 0.203
5 | GGCCGGCAUGGUCCCAGCCUGCUCGCUGGCGCCGGCUGGGCAACAUUCCGAGGGGACCGUCCCCUCUGUAAUGGCGAAUGGGACCCA [C21G G67U] | 0.0723
6 | GGCCGGCAUGGUCCCAGCCUGCUCGCUGGCGCCGGCUGCGCAACAUUCCGAGGGGACCGUCCCCUCGGUAAUGGCGAAUGGGACCCA [C21G G39C] | 0.554
7 | GGCCGGCAUGGUCCCAGCCUUCUCGCUGGCGCCGGCUGGGCAACAUUCCGAGGGGACCGUCCCCUCAGUAAUGGCGAAUGGGACCCA [C21U G67A] | 0.158
8 | GGCCGGCAUGGUCCCAGCCUGCUCGCUGGCGCCGGCUGGGCAACAUUCCGAGGGGACCGUCCCCUCGGUAAUGACGAAUGGGACCCA [C21G G74A] | 0.0511
9 | GGCCGGCAUGGUCCCAGCCUGCUCGCUGGCGCCGGCUGGGCAACAUUCCGAGGGGACCGUCCCCUCGGUAAUGUCGAAUGGGACCCA [C21G G74U] | 0.0554
10 | GGCCGGCAUGGUCCCAGCCUUCUCGCUGGCGCCGGCUGGGCAACAUUCCGAGUGGACCGUCCCCUCGGUAAUGGCGAAUGGGACCCA [C21U G53U] | 0.234
11 | GGCCGGCAUGGUCCCAGCCUUCUCGCUGGCGCCGGCUGGGCAACAUUCCGAGGGGACCGUCCCCUCGGUAAUGGCUAAUGGGACCCA [C21U G76U] | 0.542
12 | GGCCGGCAUGGUCCCAGCCUUCUCGGUGGCGCCGGCUGGGCAACAUUCCGAGGGGACCGUCCCCUCGGUAAUGGCGAAUGGGACCCA [C21U C26G] | 0.406
13 | GGCCGGCAUGGUCCCAGCCUUCUCGCUGGCGCCGGGUGGGCAACAUUCCGAGGGGACCGUCCCCUCGGUAAUGGCGAAUGGGACCCA [C21U C36G] | 0
14 | GGCCGGCAUGGUCCCAGCCUGCUCGCUGGCGCCGGCUGGGCAACAUUCCGAGGGGACCGUCCCCUCGGUAAUAGCGAAUGGGACCCA [C21G G73A] | 0.111
15 | GGCCGGCAUGGUCCCAGCCUUCUCGCUGGCGCCGGCUGGGCAACAUUCCGACGGGACCGUCCCCUCGGUAAUGGCGAAUGGGACCCA [C21U G52C] | 0.173
16 | GGCCGGCAUGGUCCCAGCCUUCUCGCUGGCGCCGGCUGGGCAACAUUCCGAGGGGACCGUCCCGUCGGUAAUGGCGAAUGGGACCCA [C21U C64G] | 0.364

Row | Variant | self-cleavage
17 | GGCCGGCAUGGUCCCAGCCUUCCCGCUGGCGCCGGCUGGGCAACAUUCCGAGGGGACCGUCCCCUCGGUAAUGGCGAAUGGGACCCA [C21U U23C] | 0.175
18 | GGCCGGCAUGGUCCCAGCCUUCGCGCUGGCGCCGGCUGGGCAACAUUCCGAGGGGACCGUCCCCUCGGUAAUGGCGAAUGGGACCCA [C21U U23G] | 0.13
19 | GGCCGGCAUGGUCCCAGCCUGCUCGCUGGCGCCGGCUGGGCAACAUUCCGAGGGGACCGUCCCCUCGGUAAUGGCCAAUGGGACCCA [C21G G76C] | 0
20 | GGCCGGCAUGGUCCCAGCCUUCUCGCUGGCGCCGGCUGGGCAACAUUCCGAGGGCACCGUCCCCUCGGUAAUGGCGAAUGGGACCCA [C21U G55C] | 0.18
21 | GGCCGGCAUGGUCCCAGCCUUCUCGCUGGCGCCGGCUGGGCAACAUUCCGAGGGAACCGUCCCCUCGGUAAUGGCGAAUGGGACCCA [C21U G55A] | 0.231
22 | GGCCGGCAUGGUCCCAGCCUGCUCGCUGGCGCCGGCUGGGCAACAUUCCGAGGGGACCGUCCCCUCGUUAAUGGCGAAUGGGACCCA [C21G G68U] | 0
23 | GGCCGGCAUGGUCCCAGCCUGCUCGCUGUCGCCGGCUGGGCAACAUUCCGAGGGGACCGUCCCCUCGGUAAUGGCGAAUGGGACCCA [C21G G29U] | 0.0733
24 | GGCCGGCAUGGUCCCAGCCUUCUCGCUGGCGCCGGCUGGGCAACUUUCCGAGGGGACCGUCCCCUCGGUAAUGGCGAAUGGGACCCA [C21U A45U] | 0.283
25 | GGCCGGCAUGGUCCCAGCCUGCUCGCUGGCGCCGGCUGGGCAACAUUCCGAGGGGACCGUCCCCGCGGUAAUGGCGAAUGGGACCCA [C21G U65G] | 0
26 | GGCCGGCAUGGUCCCAGCCUUCUCGCUGGCGCCGGCUGGGCAACAUUCCGAGGGGACCGUCGCCUCGGUAAUGGCGAAUGGGACCCA [C21U C62G] | 0.244
27 | GGCCGGCAUGGUCCCAGCCUUCUCGCUGGCGCCGGCUGGGCAACAUUCCGAGGGGACCGUCCGCUCGGUAAUGGCGAAUGGGACCCA [C21U C63G] | 0.119
28 | GGCCGGCAUGGUCCCAGCCUUCUCCCUGGCGCCGGCUGGGCAACAUUCCGAGGGGACCGUCCCCUCGGUAAUGGCGAAUGGGACCCA [C21U G25C] | 0.119
29 | GGCCGGCAUGGUCCCAGCCUGCUCGCAGGCGCCGGCUGGGCAACAUUCCGAGGGGACCGUCCCCUCGGUAAUGGCGAAUGGGACCCA [C21G U27A] | 0
30 | GGCCGGCAUGGUCCCAGCCUUCUCGCUGGCGCCCGCUGGGCAACAUUCCGAGGGGACCGUCCCCUCGGUAAUGGCGAAUGGGACCCA [C21U G34C] | 0
31 | GGCCGGCAUGGUCCCAGCCUGCUCGCUGGCGCCGACUGGGCAACAUUCCGAGGGGACCGUCCCCUCGGUAAUGGCGAAUGGGACCCA [C21G G35A] | 0.0817
32 | GGCCGGCAUGGUCCCAGCCUUCUCGCUGGCGCCGGCUGGGCAACAUUCCGAGGGGACCAUCCCCUCGGUAAUGGCGAAUGGGACCCA [C21U G59A] | 0.154
